Test results published in EP3020822A1 (Janssen Biotech, Inc., dated 2016).
Substitutions are numbered along the chain they refer to. Names may count otherwise.

Legend:
[1] = molecular target: cynomolgus TLR3 (cynomolgus, UniProt A0A2K5WT39 32-912); test: cell-based or functional assay
[2] = molecular target: T1, human TLR3 extracellular domain (ECD) (human, UniProt O15455 24-703); test: Biacore (data not shown)
T1 construct: amino acids 1-703 of human TLR3; the structural model covers residues 30-687; also called huTLR3 ECD; TLR3 ECD

[3] = molecular target: T1, human TLR3 extracellular domain (ECD); test: ELISA, huTLR3 ECD coated, mAb titrated, anti-human IgG-peroxidase
[4] = molecular target: murine TLR3, full length (mouse, UniProt Q99MB1 26-905); test: cell-based or functional assay
[5] = molecular target: T1, human TLR3 extracellular domain (ECD); test: ELISA, human TLR3 ECD coated, goat anti-human Fc:HRP, luminescence

B1: mAb 15EVQ (antibody, human IgG4 S228P, kappa, F234A L235A)
heavy: not shown
light: DIQMTQSPSSLSASVGDRVTITCRASQSIGLYLAWYQQKPGKAPKLLIYAASSLQSGVPSRFSGSGSGTDFTLTISSLQPEDFATYYCQQGNTLSYTFGQGTKVEIKRTVAAPSVFIFPPSDEQLKSGTASVVCLLNNFYPREAKVQWKVDNALQSGNSQESVTEQDSKDSTYSLSSTLTLSKADYEKHKVYACEVTHQGLSSPVTKSFNRGEC
For B1, the “IC50, cyno ISRE reporter gene assay” value [1] was 1.74 µg/mL and the “IC50, cyno NF-κB reporter gene assay” value [1] was 4.18 µg/mL.

B2: mAb 14 (antibody, human IgG4 S228P, kappa, V domains shown)
VH: QVELVQSGAEVKKPGESLKISCKGSGYSFTNYWVGWVRQMPGKGLEWMGFIDPSDSYTNYAPSFQGQVTISADKSISTAYLQWSSLKASDTAMYYCARELYQGYMDTFDSWGQGTLVTVSS
VL: DIQMTQSPSSLSASVGDRVTITCRASQSIGLYLAWYQQKPGKAPKLLIYAASSLQSGVPSRFSGSGSGTDFTLTISSLQPEDFATYYCQQAETVSPTFGQGTKVEIKR
notes: human IgG4 with S229P; also called candidate 14; Fab 14
With B2 the Kd [2] was less than 10 nM and the EC50 [3] was 0.0336 µg/mL.

B3: mAb 15 (antibody, human IgG4 S228P, kappa)
heavy: not shown
light: B1 light
B3 was tested, and the “IC50, poly(I:C) ISRE luciferase reporter gene assay, HEK293T cells with full-length murine TLR3” value (from here on “IC50 … with full-length murine TLR3”) [4] was 22 µg/mL.

B4: mAb 15-1 (antibody, human IgG4 S228P, kappa, F234A L235A, V domains shown)
VH: B2 VH with Q1E, E3Q, F50R
VL: B2 VL with A91G, E92N, V94L, P96Y
notes: also called HC: F50R
B4: binds [5].

B5: mAb 15-2 (antibody, human IgG4 S228P, kappa, F234A L235A, V domains shown)
VH: B2 VH with Q1E, E3Q, V34I
VL: B2 VL with A91G, E92N, V94L, P96Y
notes: also called HC: V34I
B5: binds [5].

B6: mAb 15-3 (antibody, human IgG4 S228P, kappa, F234A L235A, V domains shown)
VH: B2 VH with Q1E, E3Q, V34I, G35S
VL: B2 VL with A91G, E92N, V94L, P96Y
notes: also called HC: V34I/G35S
B6: binds [5].

B7: mAb 15-4 (antibody, human IgG4 S228P, kappa, F234A L235A, V domains shown)
VH: B2 VH with Q1E, E3Q, A61S, Q67H
VL: B2 VL with A91G, E92N, V94L, P96Y
notes: also called HC: A61S/Q67H
B7: binds [5].

B8: mAb 15-5 (antibody, human IgG4 S228P, kappa, F234A L235A, V domains shown)
VH: B2 VH with Q1E, E3Q, V34I, G35S, F50R, A61S, Q67H
VL: B2 VL with A91G, E92N, V94L, P96Y
notes: also called HC: F50R/V34I/G35S/A61S/Q67H
B8: binds [5].

B9: mAb 15-6 (antibody, human IgG4 S228P, kappa, F234A L235A, V domains shown)
VH: B2 VH with Q1E, E3Q, V34I, G35S, E99Q
VL: B2 VL with A91G, E92N, V94L, P96Y
notes: also called HC: V34I/G35S/E99Q
B9: binds [5].

B10: mAb 15-9 (antibody, human IgG4 S228P, kappa, F234A L235A, V domains shown)
VH: B2 VH with Q1E, E3Q, V34I, G35S, F50R, A61S, Q67H, E99Q
VL: B2 VL with A91G, E92N, V94L, P96Y
notes: also called HC: F50R/V34I/G35S/A61S/Q67H/E99Q
B10: binds [5].

B11: mAb 5429 (antibody, mouse IgG1, kappa, V domains shown)
VH: EVQLVASGGGLVKPGASLKLSCVASGFTFSDYWMAWVRQTPGKPMEYIGDIKSDGSKVNYAPSLKNRFTISRDNARTTLYLQMSNVRSEDTATYYCNRDIGPDWYFDFWGPGTMVTVSS
VL: DIQMTQSPTSLSASLGETVTIECRASEDIYNGLAWYQQKPGKSPQLLIYDSNSLHTGVPSRFSGRGSGTQYSLRINSLQSEDVASYFCQQYYDYPLTFGSGTKLEIKR
B11 was tested, and the “IC50 … with full-length murine TLR3” value [4] was 0.5 µg/mL.

B12: mAb c1811 (antibody, mouse IgG1, kappa, V domains shown)
VH: B11 VH
VL: B11 VL
With B12 the “IC50 … with full-length murine TLR3” value [4] was 0.7 µg/mL.

B13: mAb 17 (antibody, human IgG4 S228P, V domains shown)
VH: QVELQQSGPGLVKPSQTLSLTCAISGDSVSTRSAAWGWIRQSPGRGLEWLGRIYMRSKWYNDYAVSVKSRITINPDTSKNQFSLQLNSVTPEDTAVYYCARHTYPYLSFDVWGQGTLVTVSS
VL: DIELTQPPSVSVAPGQTARISCSGDALGGYFVSWYQQKPGQAPVLVIYDDDNRPSGIPERFSGSNSGNTATLTISGTQAEDEADYYCASYDGDEFTVFGGGTKLTVL
notes: human IgG4 with S229P; also called candidate 17; Fab 17
Binder B13 has a Kd [2] of less than 10 nM and an EC50 [3] of 0.0138 µg/mL.

B14: mAb 3 (antibody, human IgG4 S228P, V domains shown)
VH: B13 VH with Y54H, M55R
VL: B13 VL
notes: human IgG4 with S229P; also called candidate 3; Fab 3
In the case of B14, the Kd [2] is reported as less than 10 nM and the EC50 [3] is reported as 0.0234 µg/mL.

B15: mAb 4 (antibody, human IgG4 S228P, V domains shown)
VH: B13 VH with R52K, Y54S, M55Y, K58R
VL: B13 VL
notes: human IgG4 with S229P; also called candidate 4; Fab 4
B15 showed a Kd [2] of less than 10 nM and an EC50 [3] of 0.0128 µg/mL.

B16: mAb 5 (antibody, human IgG4 S228P, V domains shown)
VH: B13 VH
VL: B13 VL with A88Q, G92E, E94S, F95A
notes: human IgG4 with S229P; also called candidate 5; Fab 5
B16 showed a Kd [2] of less than 10 nM and an EC50 [3] of 0.0199 µg/mL.

B17: mAb 6 (antibody, human IgG4 S228P, V domains shown)
VH: B13 VH
VL: B13 VL with A88G, G92S, D93N, E94S, F95L
notes: human IgG4 with S229P; also called candidate 6; Fab 6
B17 showed a Kd [2] of less than 10 nM and an EC50 [3] of 0.019 µg/mL.

B18: mAb 7 (antibody, human IgG4 S228P, V domains shown)
VH: B13 VH
VL: B13 VL with A88S, G92S, E94S, F95L
notes: human IgG4 with S229P; also called candidate 7; Fab 7
In the case of B18, the Kd [2] is reported as less than 10 nM and the EC50 [3] is reported as 0.0161 µg/mL.

B19: mAb 8 (antibody, human IgG4 S228P, V domains shown)
VH: QVELQQSGPGLVKPSQTLSLTCAISGDSVSSNSAAWGWIRQSPGRGLEWLGIIQTRSKWYNDYAVSVKSRITINPDTSKNQFSLQLNSVTPEDTAVYYCARYSYPFYSIDYWGQGTLVTVSS
VL: DIELTQPPSVSVAPGQTARISCSGDNIGSYYVHWYQQKPGQAPVLVIYEDSERPSGIPERFSGSNSGNTATLTISGTQAEDEADYYCQSYDSQFSFGVFGGGTKLTVL
notes: human IgG4 with S229P; also called candidate 8; Fab 8
For B19, the Kd [2] was less than 10 nM and the EC50 [3] was 0.0186 µg/mL.

B20: mAb 9 (antibody, human IgG4 S228P, V domains shown)
VH: B19 VH with T55I, V65L
VL: B19 VL
notes: human IgG4 with S229P; also called candidate 9; Fab 9
With B20 the Kd [2] was less than 10 nM and the EC50 [3] was 0.0226 µg/mL.

B21: mAb 18 (antibody, human IgG4 S228P, V domains shown)
VH: B19 VH with T55K, D62N
VL: B19 VL
notes: human IgG4 with S229P; also called candidate 18; Fab 18
B21 was tested, and the Kd [2] was less than 10 nM and the EC50 [3] was 0.00968 µg/mL.

B22: mAb 10 (antibody, human IgG4 S228P, V domains shown)
VH: B19 VH with T55K, D62N
VL: DIELTQPPSVSVAPGQTARISCSGDNIGSYYVHWYQQKPGQAPVLVIYEDSERPSGIPERFSGSNSGNTATLTISGTQAEDEADYYCQSYDTPVYSVFGGGTKLTVL
notes: human IgG4 with S229P; also called candidate 10; Fab 10
Work on B22 yielded a Kd [2] of less than 10 nM and an EC50 [3] of 0.0158 µg/mL.

B23: mAb 11 (antibody, human IgG4 S228P, V domains shown)
VH: B19 VH with T55K, D62N
VL: B22 VL with Q88S, T92E, V94N, Y95F, S96N
notes: human IgG4 with S229P; also called candidate 11; Fab 11
Binder B23 has a Kd [2] of less than 10 nM and an EC50 [3] of 0.0263 µg/mL.

B24: mAb 13 (antibody, human IgG4 S228P, V domains shown)
VH: B2 VH
VL: DIQMTQSPSSLSASVGDRVTITCRASQSIGLYLAWYQQKPGKAPKLLIYAASSLQSGVPSRFSGSGSGTDFTLTISSLQPEDFATYYCQQGESILSTFGQGTKVEIK
notes: human IgG4 with S229P; also called candidate 13; Fab 13
B24 was tested, and the Kd [2] was less than 10 nM and the EC50 [3] was 0.0235 µg/mL.

B25: mAb 19 (antibody, human IgG4 S228P, V domains shown)
VH: B2 VH
VL: B24 VL with G91Y, E92G, I94V, L95S, S96I
notes: human IgG4 with S229P; also called candidate 19; Fab 19
B25 was tested, and the Kd [2] was less than 10 nM and the EC50 [3] was 0.0665 µg/mL.

B26: mAb 2 (antibody, human IgG4 S228P, V domains shown)
VH: QVELVQSGAEVKKPGESLKISCKGSGYSFNNYWIGWVRQMPGKGLEWMGIIDPQDSWTNYAPSFQGQVTISADKSISTAYLQWSSLKASDTAMYYCARNIYEFDYWGQGTLVTVSS
VL: DIQMTQSPSSLSASVGDRVTITCRASQGISSWLNWYQQKPGKAPKLLIYGASNLQSGVPSRFSGSGSGTDFTLTISSLQPEDFAVYYCQQYDDFSITFGQGTKVEIK
notes: human IgG4 with S229P; also called candidate 2; Fab 2
B26 gave a Kd [2] of less than 10 nM and an EC50 [3] of 0.0531 µg/mL.

B27: mAb 16 (antibody, human IgG4 S228P, V domains shown)
VH: B26 VH with Q54G, W57Y
VL: B26 VL
notes: human IgG4 with S229P; also called candidate 16; Fab 16
With B27 the Kd [2] was less than 10 nM and the EC50 [3] was 0.0437 µg/mL.

B28: mAb 1 (antibody, human IgG4 S228P)
heavy: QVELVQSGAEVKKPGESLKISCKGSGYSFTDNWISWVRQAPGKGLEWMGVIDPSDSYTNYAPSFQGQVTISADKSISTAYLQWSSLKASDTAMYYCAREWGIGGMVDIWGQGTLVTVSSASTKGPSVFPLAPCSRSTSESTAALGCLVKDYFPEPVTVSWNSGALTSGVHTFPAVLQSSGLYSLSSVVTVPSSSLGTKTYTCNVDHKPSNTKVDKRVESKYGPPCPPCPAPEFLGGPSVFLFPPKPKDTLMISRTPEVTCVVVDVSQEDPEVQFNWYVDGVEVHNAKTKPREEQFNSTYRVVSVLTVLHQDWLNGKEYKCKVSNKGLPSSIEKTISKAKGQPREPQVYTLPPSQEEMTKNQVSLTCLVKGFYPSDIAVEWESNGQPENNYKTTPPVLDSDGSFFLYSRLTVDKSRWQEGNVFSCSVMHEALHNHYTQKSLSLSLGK
VL: DIVLTQSPATLSLSPGERATLSCRASQYIDISYLAWYQQKPGQAPRLLIYDASSRATGVPARFSGSGSGTDFTLTISSLEPEDFAVYYCQQYYSLSITFGQGTKVEIK
notes: human IgG4 with S229P; also called candidate 1; Fab 1
For B28, the Kd [2] was less than 10 nM and the EC50 [3] was 0.0172 µg/mL.
